{
  "source": "paper PMC7536116",
  "assay_in_all_cases": "GFET",
  "key": {"[1]": {"target": "T1, TNF-alpha (human, UniProt P01375 77-233)", "T1 sequence (P01375 77-233)": "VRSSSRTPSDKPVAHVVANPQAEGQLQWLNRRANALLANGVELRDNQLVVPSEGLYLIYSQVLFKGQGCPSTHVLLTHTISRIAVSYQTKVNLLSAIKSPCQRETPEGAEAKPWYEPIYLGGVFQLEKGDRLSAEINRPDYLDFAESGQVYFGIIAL"}, "[2]": {"target": "T1, TNF-alpha", "remark": "listed apart in the source"}, "[3]": {"target": "T1, TNF-alpha", "remark": "listed apart in the source"}},
  "note": "Like-named read-outs stand apart in the source and are kept apart here.",
  "data": [
    {"binder": "TGGTGGATGGCGCAGTCGGCGACAA (ssDNA, 5'-NH2 (amine, coupled to PASE on graphene))", "note": "[VR11 aptamer]", "values": [
      {"measurement": "Kd", "setting": "[1]", "value": 28.4, "unit": "nM"},
      {"measurement": "Kd", "setting": "[2]", "value": 27.4, "unit": "nM"},
      {"measurement": "Kd", "setting": "[3]", "value": 28.4, "unit": "nM"}
    ]}
  ]
}
